From US20060286032A1, “A radiosotope-chitosan complex for treatment of prostate cancer” (priority 2003, published 2006)
Marks after values point to notes of the source that are not given here.

Experiments:
[1] = Radioactive concentrations in collected organs and tissues by liquid scintillation counter after injection into the prostate gland; format: in vivo, SD rats; settings: for Administered radioactivity retained in the prostate gland: until 144 hrs after administration
Description: After the complex solution was administered, accurate radioactive concentrations were measured in various organs. 25 μl of the complex solution as a test drug were administered to the prostate gland in the abdominal region of SD rats, which was equal to about 100 μCi. After 0.5, 2, 6, 24, 72 and 144 hrs, the rats were anesthetized with diethylether and exsanguinated by incision of abdominal aorta. Various organs and tissues were collected, which included blood, plasma, brain, thymus, heart, lung, liver, kidney, adrenal gland, spleen, pancreas, testes, prostate gland (including an administration site), seminal vesicle, epididymis, bladder, skeletal muscle, bones, bone marrow, skin, carcass, stomach, small intestine, rectum and large intestine. The collected organs and tissues were weighed, sectioned and homogenized. The whole sample or the supernatant was assayed for radioactivity using a liquid scintillation counter. The measured radioactive concentrations in various organs and tissues according to the time are given in Table 3 (% ID/g) and Table 4 (% of dose).

[2] = tested on: DU-145 carcinoma cell line (hormone-independent prostate carcinoma cell line); assay: Antitumor effect in DU-145 subcutaneous tumor model, intratumoral injection; format: in vivo, nude mice; settings: for Tumor volume after injection: intratumoral; for Tumor growth inhibition rate: last day of the test (2 wks), tumor volume vs control
Description: To investigate the effect of the complex on hormone-independent prostate cancer, a DU-145 carcinoma cell line (hormone-independent prostate carcinoma cell line), which is rarely produces prostate-specific antigen, was transplanted into nude mice and the antitumor effect of the complex was evaluated.
The DU-145 cells were cultured in 10% FBS (fetal bovine serum)-containing F-12K(Kaign's Modification of Ham's F-12 medium) in a 5% CO2 incubator at 37° C., and 2×10^5 cells/0.2 ml/head were subcutaneously transplanted into the lumbar portion of male 6-week nude mice. When the long axis of the tumor was about 1 cm long, the complex solution was intratumorally injected. The administration volume of the test drug was 0.2 ml. The mice were divided into four groups: a control group (no treatment); two administration groups administered with the complex solution at doses of 10 mCi and 20 mCi per 1 cm^3 tumor; and another administration group administered with a non-radioactive complex solution [Holmium-165 (^165Ho)-chitosan complex solution]. Two weeks after administration with the complex solution, the mice were histopathologically examined to evaluate the antitumor effect and toxicity to major organs of the complex.

[3] = Cumulative urinary and fecal excretion of radioactivity for 72 hrs after injection into the prostate gland; format: in vivo, SD rats; settings: for Radioactivity remaining in Carcass / Radioactivity remaining in Prostate gland: 72 hr; for Total recovery rate: 72 hrs
Description: After the complex solution was administered to the prostate gland, cumulative urinary and fecal excretions of radioactivity were examined to investigate the amount of excreted ^166Ho. 25 μl of the test drug was administered to the prostate gland of SD rats, which was equal to about 100 μCi. The amount of radioactivity excreted for 72 hrs was measured. The rats were kept in metabolic cages made of a stainless material. Urine and feces were collected, and, 72 hrs after administration, the rats were sacrificed with diethylether. Radioactivity remaining in the carcass and the prostate gland was also measured.

Holmium-166 (^166Ho)-Chitosan Complex [complex solution]
Radioactive concentration, Blood ([1]; 30 min after injection): 26 ± 10 % ID/g ×10^−4
Radioactive concentration, Bones ([1]; 30 min after injection): 71 ± 55 % ID/g ×10^−4
Radioactive concentration, Plasma ([1]; 30 min after injection): 44 ± 16 % ID/g ×10^−4
Radioactive concentration, Blood ([1]; 2 hrs after injection): 19 ± 9 % ID/g ×10^−4
Radioactive concentration, Bones ([1]; 2 hrs after injection): 189 ± 79 % ID/g ×10^−4
Radioactive concentration, Plasma ([1]; 2 hrs after injection): 32 ± 11 % ID/g ×10^−4
Radioactive concentration, Bone marrow ([1]; 6 hrs after injection): 17 % ID/g ×10^−4
Radioactive concentration, Bones ([1]; 6 hrs after injection): 185 ± 107 % ID/g ×10^−4
Radioactive concentration, Bone marrow ([1]; 24 hrs after injection): 32 ± 4 % ID/g ×10^−4
Radioactive concentration, Bones ([1]; 24 hrs after injection): 711 ± 413 % ID/g ×10^−4
Radioactive concentration in other tissues (other than prostate gland, carcass, liver) ([1]; 72 hrs after administration): less than 0.1%
Radioactive concentration, Bone marrow ([1]; 72 hrs after injection): 109 ± 40 % ID/g ×10^−4
Radioactive concentration, Bones ([1]; 72 hrs after injection): 2343 ± 827 % ID/g ×10^−4
Radioactive concentration, Bones ([1]; 144 hrs after injection): 1708 ± 506 % ID/g ×10^−4
Radioactivity in major organs (brain, thymus, heart, lung, adrenal gland, spleen) and adjacent organs (bladder, rectum, testes, epididymis) ([1]; rat, in vivo): rarely detected
Administered radioactivity retained in the prostate gland [1]: over 98%
Administered radioactivity retained in the prostate gland ([1]; listed as radioisotope-chitosan complex): more than 98%
Tumor volume after injection ([2]; 10 mCi per 1 cm^3 tumor, 1 wk): 0.48 ± 0.35 cm^3
Tumor volume after injection ([2]; 10 mCi per 1 cm^3 tumor, 2 wks): 0.32 ± 0.20* cm^3
Tumor growth inhibition rate ([2]; 10 mCi per 1 cm^3 tumor): 95.1%
Tumor volume after injection ([2]; 20 mCi per 1 cm^3 tumor, 1 wk): 0.28 ± 0.04 cm^3
Tumor volume after injection ([2]; 20 mCi per 1 cm^3 tumor, 2 wks): 0.09 ± 0.24* cm^3
Tumor growth inhibition rate ([2]; 20 mCi per 1 cm^3 tumor): 98.6%
Tumor growth inhibition rate ([2]; 20 mCi per 1 cm^3 tumor, listed as Complex): 98.6%
Inhibitory activity against the tumor growth ([2]; subcutaneous tumor model): higher than 95%
Cumulative excretion, Urine ([3]; 0-3 hr, animal 1): 0.03 % of dose
Cumulative excretion, Urine ([3]; 0-3 hr, animal 2): 0.03 % of dose
Cumulative excretion, Urine ([3]; 0-3 hr, animal 3): 0.04 % of dose
Cumulative excretion, Urine ([3]; 0-6 hr, animal 1): 0.04 % of dose
Cumulative excretion, Urine ([3]; 0-6 hr, animal 2): 0.04 % of dose
Cumulative excretion, Urine ([3]; 0-6 hr, animal 3): 0.05 % of dose
Cumulative excretion, Urine ([3]; 0-24 hr, animal 1): 0.11 % of dose
Cumulative excretion, Urine ([3]; 0-24 hr, animal 2): 0.13 % of dose
Cumulative excretion, Urine ([3]; 0-24 hr, animal 3): 0.17 % of dose
Cumulative excretion, Feces ([3]; 0-72 hr, Mean): 0.11 % of dose
Cumulative excretion, Urine ([3]; 0-72 hr, Mean): 0.35 % of dose
Cumulative excretion, Feces ([3]; 0-72 hr, animal 3): 0.11 % of dose
Radioactivity remaining in Carcass ([3]; Mean): 2.67 % of dose
Radioactivity remaining in Prostate gland ([3]; Mean): 99.19 % of dose
Radioactivity remaining in Carcass ([3]; animal 1): 2.32 % of dose
Radioactivity remaining in Prostate gland ([3]; animal 1): 98.84 % of dose
Radioactivity remaining in Carcass ([3]; animal 2): 3.27 % of dose
Radioactivity remaining in Prostate gland ([3]; animal 2): 96.79 % of dose
Radioactivity remaining in Carcass ([3]; animal 3): 2.42 % of dose
Radioactivity remaining in Prostate gland ([3]; animal 3): 101.94 % of dose
Total recovery rate ([3]; Mean): 99.65%
Total recovery rate ([3]; animal 1): 99.23%
Total recovery rate ([3]; animal 2): 97.27%
Total recovery rate ([3]; animal 3): 102.46%
